What was measured:
[1] = molecular target: T1, MET (cMET, Sino Biological Cat. No. 10692-H08H) (UniProt P08581 25-932); assay: BLI: antibody captured on anti-human Fc biosensor, MET in solution; association at pH 7.4 (0-120 s), dissociation at pH 7.4 (black trace) or pH 5.4 (grey trace)
T1 construct: Soluble analyte of the BLI assays
Protocol: After allowing for four days of protein expression, cell culture supernatants were collected, quantified by SDS-PAGE analysis, and the pH dependence of the variant was evaluated using biolayer interferometry (BLI) on an Octet RED 96e instrument. Briefly, cell culture supernatants were diluted based on qualitative expression level of the variant determined by visual examination of SDS-PAGE gels, 5 μL of cell culture supernatant was diluted into 195 μL of 1×PBST, pH 7.4 for high expressors, 25 μL of cell culture supernatant was diluted into 175 μL of 1×PBST, pH 7.4 for medium expressors and 100 μL of cell culture supernatant was diluted into 100 μL of 1×PBST, pH 7.4 for low expressors for loading onto the sensor tips. Diluted supernatants were then captured on an anti-human Fc sensor (Forte Bio). A baseline was established using 1×PBST (50 mM Potassium Phosphate Buffer+150 mM NaCl+0.05% Tween 20), pH 7.4, and the sensor was associated with 50 nM of MET (cMET, Sino Biological Cat. No. 10692-H08H) in 1×PBST, pH 7.4, for 120 sec to generate an association curve. In the dissociation phase, the antibody-antigen complex on the sensor was exposed to 1×PBST, pH 7.4 or pH 5.4, for 300-600 sec.

[2] = molecular target: T2, MET Proto-Oncogene, Receptor Tyrosine Kinase (MET), on cells (human, UniProt P08581 25-1390); assay: flow cytometry titration on Detroit-562 cells (125K/cell), pH 7.4; printed as Affinity at pH 7.4
T2 construct: also called cMET; c-Met
Protocol: (§1) Measurement of the affinity of pH-engineered antibodies specific for MET was performed by FACS analysis on cell lines with ranges of cMET expression; Detroit-562 cells (ATCC; CCL-138), NCI-H1975 (ATCC CRL-5908) and HUVEC (C2519A, Lonza). Cell lines selected for this study were obtained from commercial sources and cultured using manufacturer recommended conditions. All cell lines were cultured upon receipt, expanded and cryopreserved at a similar passage number for use in the affinity experiments. Briefly, 1.0×10\hat{ }5 cells that express MET are plated per well in a 96-well plate in 100 μL media. The cells are washed two times with 200 μL of FACS buffer (1×PBS containing 3% Fetal Bovine Serum) at pH 7.4. The purified protein samples are diluted into FACS buffer at pH 7.4, for a titration from 100 nM to 1 pM, and added to the cells and allowed to bind for 2 hours on ice. After incubation with the primary antibodies, cells are washed twice as before, and then 100 μl of secondary goat anti-Human AF488 (IgG Cross-Adsorbed polyclonal secondary antibody), diluted 1:200, is added in FACS buffer pH 7.4, and incubated for 1 hour on ice. The plates are washed twice Binding is read on a flow cytometer (Accuri C6, BD Biosciences). Binding is observed as a shift in the FL1 signal (as a mean fluorescence intensity) versus secondary alone.

[3] = molecular target: T2, MET Proto-Oncogene, Receptor Tyrosine …; assay: flow cytometry titration on HUVEC cells (8k/cell), pH 7.4; printed as Affinity at pH 7.4
Protocol: as §1

[4] = molecular target: T2, MET Proto-Oncogene, Receptor Tyrosine …; assay: affinity on HUVEC against affinity on Detroit-562, flow cytometry, pH 7.4
Protocol: as §1

[5] = molecular target: T1, MET (cMET, Sino Biological Cat. No. …); assay: BLI: antibody captured on anti-human Fc biosensor, MET in solution; three runs: pH 7.4 throughout (black), pH 6.4 throughout (light grey), association at pH 7.4 then release at lower pH (dark grey; key on D00015: pH 5.4; legend paragraph 84: pH 6.4); association 0-120 s
[6] = molecular target: T1, MET (cMET, Sino Biological Cat. No. …); assay: as above; remark: listed apart in the source
[7] = molecular target: T1, MET (cMET, Sino Biological Cat. No. …); assay: as above; remark: listed apart in the source
[8] = molecular target: T1, MET (cMET, Sino Biological Cat. No. …); assay: as above; remark: listed apart in the source

T2 sequence (P08581 25-1390): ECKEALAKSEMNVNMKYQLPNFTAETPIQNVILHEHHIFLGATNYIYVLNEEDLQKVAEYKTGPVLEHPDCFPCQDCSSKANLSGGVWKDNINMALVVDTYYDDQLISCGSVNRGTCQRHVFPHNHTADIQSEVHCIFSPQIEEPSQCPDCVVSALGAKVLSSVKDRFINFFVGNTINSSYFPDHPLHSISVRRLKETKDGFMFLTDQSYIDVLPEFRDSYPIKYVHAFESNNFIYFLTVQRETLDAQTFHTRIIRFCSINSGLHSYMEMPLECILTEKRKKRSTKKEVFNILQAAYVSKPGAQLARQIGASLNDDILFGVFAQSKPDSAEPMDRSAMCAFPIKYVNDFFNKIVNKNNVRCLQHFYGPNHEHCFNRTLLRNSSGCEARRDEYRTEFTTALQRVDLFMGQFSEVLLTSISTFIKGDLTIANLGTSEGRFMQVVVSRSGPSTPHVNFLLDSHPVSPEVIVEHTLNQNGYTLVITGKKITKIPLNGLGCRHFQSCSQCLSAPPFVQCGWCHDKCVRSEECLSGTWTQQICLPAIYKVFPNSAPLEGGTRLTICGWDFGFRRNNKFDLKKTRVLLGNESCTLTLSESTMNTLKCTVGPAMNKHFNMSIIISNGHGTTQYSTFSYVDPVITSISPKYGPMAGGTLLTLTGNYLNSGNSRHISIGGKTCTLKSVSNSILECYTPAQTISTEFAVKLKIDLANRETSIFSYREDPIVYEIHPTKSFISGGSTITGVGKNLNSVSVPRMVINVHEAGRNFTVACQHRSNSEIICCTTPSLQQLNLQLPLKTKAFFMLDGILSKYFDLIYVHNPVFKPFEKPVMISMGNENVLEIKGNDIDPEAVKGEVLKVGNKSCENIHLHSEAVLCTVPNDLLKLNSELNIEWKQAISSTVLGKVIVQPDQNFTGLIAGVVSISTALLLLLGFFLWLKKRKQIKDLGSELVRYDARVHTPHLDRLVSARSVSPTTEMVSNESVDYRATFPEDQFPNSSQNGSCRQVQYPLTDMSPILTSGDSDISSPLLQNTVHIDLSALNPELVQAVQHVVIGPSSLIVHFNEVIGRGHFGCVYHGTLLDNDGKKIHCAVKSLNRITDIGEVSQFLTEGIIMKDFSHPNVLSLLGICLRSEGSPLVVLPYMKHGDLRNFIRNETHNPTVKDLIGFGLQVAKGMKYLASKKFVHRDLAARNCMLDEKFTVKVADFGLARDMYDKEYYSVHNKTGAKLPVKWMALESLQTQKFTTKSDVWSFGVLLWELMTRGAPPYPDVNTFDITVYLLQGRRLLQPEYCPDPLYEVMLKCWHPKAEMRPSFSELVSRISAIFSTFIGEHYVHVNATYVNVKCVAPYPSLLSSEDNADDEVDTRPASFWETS
T1 sequence (P08581 25-932 limits assumed): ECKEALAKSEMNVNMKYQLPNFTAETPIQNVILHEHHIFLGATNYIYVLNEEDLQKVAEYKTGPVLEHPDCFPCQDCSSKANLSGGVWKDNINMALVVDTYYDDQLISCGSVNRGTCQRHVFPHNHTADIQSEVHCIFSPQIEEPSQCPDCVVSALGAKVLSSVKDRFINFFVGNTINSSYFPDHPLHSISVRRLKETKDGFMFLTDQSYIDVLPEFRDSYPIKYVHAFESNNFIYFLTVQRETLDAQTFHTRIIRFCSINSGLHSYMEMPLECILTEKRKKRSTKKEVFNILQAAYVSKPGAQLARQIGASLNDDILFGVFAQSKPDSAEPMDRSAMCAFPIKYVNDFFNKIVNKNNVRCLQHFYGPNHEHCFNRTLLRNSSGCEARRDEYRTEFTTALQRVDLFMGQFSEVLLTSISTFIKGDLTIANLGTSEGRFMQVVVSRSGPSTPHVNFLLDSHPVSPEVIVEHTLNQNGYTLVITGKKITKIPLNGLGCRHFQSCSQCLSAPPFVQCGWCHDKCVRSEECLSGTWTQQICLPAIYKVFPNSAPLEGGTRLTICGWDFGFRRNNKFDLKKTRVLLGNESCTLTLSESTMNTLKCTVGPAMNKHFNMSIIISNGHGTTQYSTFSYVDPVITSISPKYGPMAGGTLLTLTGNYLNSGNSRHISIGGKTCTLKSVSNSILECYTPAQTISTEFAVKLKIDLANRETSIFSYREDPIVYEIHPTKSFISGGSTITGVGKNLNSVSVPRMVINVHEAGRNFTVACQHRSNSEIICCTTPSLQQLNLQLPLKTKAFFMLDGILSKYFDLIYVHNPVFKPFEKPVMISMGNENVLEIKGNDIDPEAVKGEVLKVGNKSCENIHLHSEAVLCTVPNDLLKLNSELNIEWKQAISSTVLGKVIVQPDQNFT

Row | Binder | Kd [2] | Kd [3] | Fold Avidity [4] | also measured
1 | MYT4826 (antibody, V domains shown, Emibetuzumab variant) VH: QVQLVQSGAEVKKPGASVKVSCKASGYTFTHYYMHWVRQAPGQGLEWMGRVNPNRRHTTYNQKFEGRVTMTTDTSTSTAYMELRSLRSDDTAVYYCARANWLDYWGQGTTVTVSS VL: DIQMTQSPSSLSASVGDRVTITCSVSSSVSSIYLHWYQQKPGKAPKLLIYSTSNLASGVPSRFSGSGSGTDFTLTISSLQPEDFATYYCQVYSGYPLTFGGGTKVEIKR | – | – | – | binding result [1]: binds
2 | MYT5309 (antibody, V domains shown, Emibetuzumab variant) VH: QVQLVQSGAEVKKPGASVKVSCKASGYTFTHYYMHWVRQAPGQGLEWMGRVNPNRRGTTYNQKFEGRVTMTTDTSTSTAYMELRSLRSDDTAVYYCARANWLDYWGQGTTVTVSS VL: DIQMTQSPSSLSASVGDRVTITCSVSSSVSSIYLHWYQQKPGKAPKLLIYSTSNLASGVPSRFSGSGSGTDFTLTISSLQPEDFATYYCQHYSGYPLTFGGGTKVEIKR | 1.34 nM | > 200 nM | > 50 fold | –
3 | MYT4849 (antibody, V domains shown, Emibetuzumab variant) VH: QVQLVQSGAEVKKPGASVKVSCKASGYTFTDYYMHWVRQAPGQGLEWMGRVNPNRRGTTYNQKFEGRVTMTTDTSTSTAYMELRSLRSDDTAVYYCARANWLDYWGQGTTVTVSS VL: DIQMTQSPSSLSASVGDRVTITCSVSSSVSSIHLHWYQQKPGKAPKLLIYHTSNLASGVPSRFSGSGSGTDFTLTISSLQPEDFATYYCQVYSGYPLTFGGGTKVEIKR | – | – | – | binding result [5]: binds
4 | MYT4827 (antibody, V domains shown, Emibetuzumab variant) VH: QVQLVQSGAEVKKPGASVKVSCKASGYTFTHYYMHWVRQAPGQGLEWMGRVNPNRRGTTYNQKFEGRVTMTTDTSTSTAYMELRSLRSDDTAVYYCARAHWLDYWGQGTTVTVSS VL: DIQMTQSPSSLSASVGDRVTITCSVSSSVSSIYLHWYQQKPGKAPKLLIYSTSNLASGVPSRFSGSGSGTDFTLTISSLQPEDFATYYCQVYSGYPLTFGGGTKVEIKR | – | – | – | binding result [6]: binds
5 | MYT4888 (antibody, V domains shown, P3D12 variant; also called MYTH4888) VH: QVQLVQSGAEVKKPGASVKVSCKASGYTFTSYWMHWVKQAPGQGLDWIGYIKPSTDNTEYNQKFKDKATLTADKSTSTAYMELSSLRSEDTAVYYCARSYGNYPLHDYWGQGTTVTVSS VL: QIVLTQSPAILSLSPGERATLSCSASSSVTSNYLYWYQQKPGSSPKLLIYSTSNLASGVPARFSGSGSGTSYTLTISSLEAEDAASYFCHQWSSYPPTFGSGTKLEIKR | – | – | – | binding result [7]: binds
6 | MYT5367 (antibody, V domains shown, P3D12 variant) VH: QVQLVQSGAEVKKPGASVKVSCKASGYTFTSYWMHWVKQAPGQGLDWIGHIKPSTDNTEYNQKFKDKATLTADKSTSTAYMELSSLRSEDTAVYYCARSYGNYPLMDYWGQGTTVTVSS VL: QIVLTQSPAILSLSPGERATLSCSASSSVTSNYLYWYQQKPGSSPKLLIYSTSNLASGVPARFSGSGSGTSYTLTISSLEAEDAASYFCHQWSHYHPTFGSGTKLEIKR | – | – | – | binding result [1]: binds
7 | MYT5344 (antibody, V domains shown, P3D12 variant) VH: QVQLVQSGAEVKKPGASVKVSCKASGYTFTSYWMHWVKQAPGQGLDWIGYIKHSTDNTEYNQKFKDKATLTADKSTSTAYMELSSLRSEDTAVYYCARSYGNYPLMDYWGQGTTVTVSS VL: QIVLTQSPAILSLSPGERATLSCSASSSVTSHYLYWYQQKPGSSPKLLIYSTSNLASGVPARFSGSGSGTSYTLTISSLEAEDAASYFCHQWSSYPPTFGSGTKLEIKR | – | – | – | binding result [1]: binds
8 | MYT4942 (antibody, V domains shown, Telisotuzumab variant) VH: QVQLVQSGAEVKKPGASVKVSCKASGHIFTAYTMHWVRQAPGQGLEWMGWIKPNNGLANYAQKFQGRVTMTRDTSISTAYMELSRLRSDDTAVYYCARSEITHEFDHWGQGTLVTVSS VL: DIVMTQSPDSLAVSLGERATINCKSSESVDSYANSHLHWYQQKPGQPPKLLIYRASTRESGVPDRFSGSGSGTDFTLTISSLQAEDVAVYYCQQSKEDPLTFGGGTKVEIKR | – | – | – | binding result [8]: binds

More lines, main results first:

Row | Kd [2] | Kd [3] | Fold Avidity [4] | Binder | also measured
9 | 1.02 nM | > 100 nM | > 100 fold | MYT4837 (antibody, V domains shown, Emibetuzumab variant) VH: QVQLVQSGAEVKKPGASVKVSCKASGYTFTHYYMHWVRQAPGQGLEWMGRVNPHRRHTTYNQKFEGRVTMTTDTSTSTAYMELRSLRSDDTAVYYCARANWLDYWGQGTTVTVSS VL: DIQMTQSPSSLSASVGDRVTITCSVSSSVSSIYLHWYQQKPGKAPKLLIYSTSNLASGVPSRFSGSGSGTDFTLTISSLQPEDFATYYCQVYSGYPLTFGGGTKVEIKR | –
10 | 0.292 nM | 0.2 nM | 0.7 fold | MYT4305 (P3D12) (antibody, V domains shown, Human IgG1; also called P3D12 anti-cMET) VH: QVQLVQSGAEVKKPGASVKVSCKASGYTFTSYWMHWVKQAPGQGLDWIGYIKPSTDNTEYNQKFKDKATLTADKSTSTAYMELSSLRSEDTAVYYCARSYGNYPLMDYWGQGTTVTVSS VL: QIVLTQSPAILSLSPGERATLSCSASSSVTSNYLYWYQQKPGSSPKLLIYSTSNLASGVPARFSGSGSGTSYTLTISSLEAEDAASYFCHQWSSYPPTFGSGTKLEIK | –
11 | 0.486 nM | > 100 nM | > 200 fold | MYT5351 (antibody, V domains shown, P3D12 variant) VH: QVQLVQSGAEVKKPGASVKVSCKASGYTFTSYWMHWVKQAPGQGLDWIGHIKPSTDNTEYNQKFKDKATLTADKSTSTAYMELSSLRSEDTAVYYCARSYGNYPLMDYWGQGTTVTVSS VL: QIVLTQSPAILSLSPGERATLSCSASSSVTSNYLYWYQQKPGSSPKLLIYSHSNLASGVPARFSGSGSGTSYTLTISSLEAEDAASYFCHQWSSYPPTFGSGTKLEIKR | –

Source: patent US20240101688A1 (MYTHIC THERAPEUTICS, published 2024)
